Results: patent US20210355221A1, “Targeting the Non-Canonical NFkB Pathway in Cancer Immunotherapy” (The General Hospital Corporation, priority 2018, published 2021)

Assays:
MC38 tumors = assay: MC38 tumor model: tumor growth, survival, re-challenge; format: in vivo, mice; conditions: MC38 tumor-bearing mice, treatment as labelled
Protocol: MC38 tumor cell lines were obtained from Dr. Mark Smyth (QIMR Berghofer). MC38 cells were implanted at 2×10^6 cells in the flank. B16F10 cell lines were obtained from ATCC. B16F10 cells were implanted intradermally at 0.5×10^6 cells in the flank. All tumor models were allowed to grow for one week prior to therapy. Tumor sizes were approximately 75 mm^3 before treatment initiation, and starting tumor volumes were normalized between treatment groups. Percent tumor changes were calculated as percent difference of mouse tumor volume from pre-treatment baseline, measured using digital caliper. Lung seeding B16F10 models received 0.5×10^6 cells intravenously and were allowed to grow for 10 days from the point of implantation. Mouse tumors were allowed to grow to a maximum of 2 cm in diameter, or until tumor ulceration occurred. These were considered as endpoints for survival experiments in accordance with MGH IACUC regulations.
Tumor bearing mice, with a tumor size of approximately 75 mm^3, were treated with 200 μg of aPD-1 and/or 100 μg of aCD40 intraperitoneally for immunotherapy studies. For combination treatment studies, both aPD-1 and aCD40 were administered at the same time. For IL-12 neutralization studies, mice were dosed with 500 μg of anti-IL-12p40 Clone 17.8 daily for 5-7 days following aPD-1 therapy. Neutralization of IFN-γ in vivo was performed by administering 1 mg of anti-IFN-γ Clone XMG1.2 initially with 500 μg of anti-IFN-γ dosed daily intraperitoneally for days 1-3. The cIAP1/2 inhibitor AZD5582 (Hennessy et al., 2013) was purchased from Selleck Chem and was resuspended in sterile saline. Mice received a single dose of AZD5582 at 10 mg/kg, intraperitoneally. […]
Long-term surviving mice from aPD-1 and aCD40 combination therapy were re-challenged with either MC38 or B16F10 tumors at 50 days following primary tumor rejection. […] Naive C57BL/6J mice were implanted alongside re-challenge mice, and these mice were monitored for tumor growth for 2 weeks following implantation. […]

B16F10 melanoma = B16F10 melanoma tumor model: tumor growth, survival, re-challenge; format: in vivo; conditions: B16F10 melanoma-bearing mice, treatment as labelled
Protocol: Tumor bearing mice, with a tumor size of approximately 75 mm^3, were treated with 200 μg of aPD-1 and/or 100 μg of aCD40 intraperitoneally for immunotherapy studies. For combination treatment studies, both aPD-1 and aCD40 were administered at the same time. […] Mice received a single dose of AZD5582 at 10 mg/kg, intraperitoneally. […]

[1] = tested on: human tumor-infiltrating CD8^+ T cells; assay: IL-12 ex vivo studies: IFN-γ ELISA of stimulated patient tumor-infiltrating CD8+ T cells; format: cell-based; conditions: aCD3 stimulation with IL-12, six cancer patients, 3 days
From the text: IL-12 ex vivo studies: Fresh tumor resections from six cancer patients undergoing surgical treatment at University Hospital Basel, Switzerland were used to assess whether IL-12 can directly activate human tumor-infiltrating CD8^+ T cells upon isolation of these cells ex vivo. Tumor tissue (two lung adenocarcinomas, three squamous cell carcinomas and one synovial sarcoma) was collected from six different patients undergoing primary surgical treatment between November 2015 and November 2017. The study was approved by the local Ethical Review Board (Ethikkommission Nordwestschweiz) and all patients consented in writing to the analysis of their tumor samples. The solid tumor lesions were mechanically dissociated and enzymatically digested using accutase (PAA), collagenase IV (Worthington), hyaluronidase (Sigma) and DNAse type IV (Sigma), directly after excision. Single cell suspensions were prepared and cryopreserved in liquid nitrogen in 90% fetal calf serum (FCS, Brunschwig Pan Biotech) and 10% dimethylsulfoxide (DMSO, Sigma) until further usage. […] Sorting purity was measured by reanalyzing the sorted cells and always reached >95% purity. […] IFN-γ secreted by these cultures was then measured by enzyme-linked immunosorbent assay according to the instructions by the manufacturer (BD, OptEIA human IFN-γ ELISA set). […]

B1: IL-12: recombinant IL-12 in mouse studies; recombinant human IL-12p70 (PeproTech) in the human ex vivo studies (protein, UniProt P29459 23-219; P29460 23-328, looked up)
Interleukin-12 subunit alpha: RNLPVATPDPGMFPCLHHSQNLLRAVSNMLQKARQTLEFYPCTSEEIDHEDITKDKTSTVEACLPLELTKNESCLNSRETSFITNGSCLASRKTSFMMALCLSSIYEDLKMYQVEFKTMNAKLLMDPKRQIFLDQNMLAVIDELMQALNFNSETVPQKSSLEEPDFYKTKIKLCILLHAFRIRAVTIDRVMSYLNAS
Interleukin-12 subunit beta: IWELKKDVYVVELDWYPDAPGEMVVLTCDTPEEDGITWTLDQSSEVLGSGKTLTIQVKEFGDAGQYTCHKGGEVLSHSLLLLHKKEDGIWSTDILKDQKEPKNKTFLRCEAKNYSGRFTCWWLTTISTDLTFSVKSSRGSSDPQGVTCGAATLSAERVRGDNKEYEYSVECQEDSACPAAEESLPIEVMVDAVHKLKYENYTSSFFIRDIIKPDPPKNLQLKPLKNSRQVEVSWEYPDTWSTPHSYFSLTFCVQVQGKSKREKKDRVFTDKTSATVICRKNASISVRAQDRYYSSSWSEWASVPCS
B1 was tested, and the “antitumor response, MC38 tumors” value (MC38 tumors) was “robust antitumor responses”, the “antitumor response, B16F10 tumors” value (B16F10 melanoma) was “substantial antitumor effect” and the “IFN-γ production by CD8^+ T cells” value [1] was “increased IFN-γ production by CD8^+ T cells in five out of six patients”.
